Test results reported in publication PMC8010718, “Direct coupling of oligomerization and oligomerization-driven endocytosis of the dopamine transporter to its conformational mechanics and activity” (The Journal of Biological Chemistry, 2021).

B1: YFP- and HA-epitope tagged dopamine transporter (YFP-HA-DAT), wild type [human] / itself (parent)
chain: MSKSKCSVGLMSSVVAPAKEPNAVGPKEVELILVKEQNGVQLTSSTLTNPRQSPVEAQDRETWGKKIDFLLSVIGFAVDLANVWRFPYLCYKNGGGAFLVPYLLFMVIAGMPLFYMELALGQFNREGAAGVWKICPILKGVGFTVILISLYVGFFYNVIIAWALHYLFSSFTTELPWIHCNNSWNSPNCSDAHPGDSSGDSSGLNDTFGTTPAAEYFERGVLHLHQSHGIDDLGPPRWQLTACLVLVIVLLYFSLWKGVKTSGKVVWITATMPYVVLTALLLRGVTLPGAIDGIRAYLSVDFYRLCEASVWIDAATQVCFSLGVGFGVLIAFSSYNKFTNNCYRDAIVTTSINSLTSFSSGFVVFSFLGYMAQKHSVPIGDVAKDGPGLIFIIYPEAIATLPLSSAWAVVFFIMLLTLGIDSAMGGMESVITGLIDEFQLLHRHRELFTLFIVLATFLLSLFCVTNGGIYVFTLLDHFAAGTSILFGVLIEAIGVAWFYGVGQFSDDIQQMTGQRPSLYWRLCWKLVSPCFLLFVVVVSIVTFRPPHYGAYIFPDWANALGWVIATSSMAMVPIYAAYKFCSLPGSFREKLAYAIAPEKDRELVDRGEVRQFTLRHWLKV

Variants of: B1
Assay: SDS-PAGE and immunoblotting with the GFP antibody, quantification of trimer band
Conditions: AIM-100 20 μM, 2 h at 37 °C, PAE cells, read off a plot

| screen value (fraction of total) | Variant |
| --- | --- |
| 0.3 | chain 1 I248F V249T L458F L459G |

Same assay, conditions: AL3 20 μM, 2 h at 37 °C, PAE cells, read off a plot

| screen value (fraction of total) | Variant |
| --- | --- |
| 0.15 | chain 1 I248F V249T L458F L459G |

Same assay, conditions: AL4 20 μM, 2 h at 37 °C, PAE cells, read off a plot

| screen value (fraction of total) | Variant |
| --- | --- |
| 0.17 | chain 1 I248F V249T L458F L459G |

Same assay, conditions: AL8 20 μM, 2 h at 37 °C, PAE cells, read off a plot

| screen value (fraction of total) | Variant |
| --- | --- |
| 0.22 | chain 1 I248F V249T L458F L459G |

Same assay, conditions: vehicle, 2 h at 37 °C, PAE cells, read off a plot

| screen value (fraction of total) | Variant |
| --- | --- |
| 0.17 | chain 1 I248F V249T L458F L459G |
